In patent US20260374897 (published 2026):
Blank lines part the entries; values can stand above or below the binder they belong to.

How the values were obtained:
human FAP ECD = human FAP ECD (human, UniProt Q12884); assay: SPR
mouse FAP (cell surface) = molecular target: T1, mouse FAP (cell surface) (mouse, UniProt P97321); assay: FACS
T1 chain: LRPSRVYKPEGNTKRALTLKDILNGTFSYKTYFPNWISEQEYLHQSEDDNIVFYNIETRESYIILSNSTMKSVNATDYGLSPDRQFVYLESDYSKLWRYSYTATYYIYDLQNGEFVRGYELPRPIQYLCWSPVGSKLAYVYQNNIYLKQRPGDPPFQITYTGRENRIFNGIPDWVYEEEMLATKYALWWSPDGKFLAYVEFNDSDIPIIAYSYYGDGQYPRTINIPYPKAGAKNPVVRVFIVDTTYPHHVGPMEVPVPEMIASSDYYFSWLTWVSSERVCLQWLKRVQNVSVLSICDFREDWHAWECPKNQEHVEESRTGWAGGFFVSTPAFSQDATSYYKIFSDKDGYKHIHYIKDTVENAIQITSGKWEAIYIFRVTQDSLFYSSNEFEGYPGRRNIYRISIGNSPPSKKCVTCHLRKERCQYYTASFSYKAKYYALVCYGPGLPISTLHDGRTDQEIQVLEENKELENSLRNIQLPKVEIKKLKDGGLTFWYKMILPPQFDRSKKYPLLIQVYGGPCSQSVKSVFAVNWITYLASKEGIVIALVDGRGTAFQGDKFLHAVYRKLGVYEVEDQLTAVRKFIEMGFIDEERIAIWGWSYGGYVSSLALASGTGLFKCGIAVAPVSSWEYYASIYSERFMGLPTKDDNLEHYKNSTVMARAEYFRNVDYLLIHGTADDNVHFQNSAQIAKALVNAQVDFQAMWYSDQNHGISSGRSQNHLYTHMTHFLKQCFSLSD

human FAP (cell surface) = human FAP (cell surface) (human, UniProt Q12884); assay: FACS
Sequence of human FAP (cell surface) (Q12884 26-760): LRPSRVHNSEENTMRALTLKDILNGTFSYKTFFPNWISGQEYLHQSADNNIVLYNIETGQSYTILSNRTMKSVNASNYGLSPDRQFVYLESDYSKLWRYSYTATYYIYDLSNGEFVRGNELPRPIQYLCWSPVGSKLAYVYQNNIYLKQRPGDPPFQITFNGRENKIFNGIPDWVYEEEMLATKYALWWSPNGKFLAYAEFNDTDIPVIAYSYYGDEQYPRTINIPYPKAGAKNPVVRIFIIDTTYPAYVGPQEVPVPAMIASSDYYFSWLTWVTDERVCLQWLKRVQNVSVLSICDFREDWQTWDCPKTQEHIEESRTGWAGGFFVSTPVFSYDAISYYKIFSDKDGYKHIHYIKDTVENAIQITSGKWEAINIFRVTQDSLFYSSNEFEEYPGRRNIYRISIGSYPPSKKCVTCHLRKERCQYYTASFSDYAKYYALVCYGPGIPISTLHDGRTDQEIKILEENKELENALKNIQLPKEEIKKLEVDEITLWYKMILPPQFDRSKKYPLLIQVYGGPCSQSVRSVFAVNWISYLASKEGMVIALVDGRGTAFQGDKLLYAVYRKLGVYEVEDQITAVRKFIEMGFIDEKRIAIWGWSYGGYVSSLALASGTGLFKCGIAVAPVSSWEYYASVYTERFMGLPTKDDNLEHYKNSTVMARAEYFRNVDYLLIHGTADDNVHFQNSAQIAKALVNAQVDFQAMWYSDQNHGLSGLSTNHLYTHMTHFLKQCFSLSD

Sequence of human FAP ECD (Q12884 26-760): as above

Kd (human FAP ECD): 0.405 nM | EC50 (mouse FAP (cell surface)): 0.79 nM | EC50 (human FAP (cell surface)): 2.51 nM
B1: Ab10-A297V3-2 FAP arm (antibody, V domains shown)
VH: QVQLQQSGVEVKKPGASVTVSCRASGYSFADHFIHWVRQAPGQGFQWMGWINPNRGVTHHAQDFQGRVAMTRDMSTDTVYMELTSLRSDDTAVYYCARDASLTARPYYFYGFDVWGQGTLVTVSS
VL: DIQMTQSPSSVSASVGDRVTITCRASQGISSWLAWYQQKPGKAPKLLIYAASSLQSGVPSRFSGSGSGTDFTLTISSLQPEDFATYYCQQANSFPPAFGQGTKVEIK

Kd (human FAP ECD): 0.378 nM | EC50 (mouse FAP (cell surface)): 1.65 nM | EC50 (human FAP (cell surface)): 1.57 nM
B2: Ab10-A297V3-4 FAP arm (antibody, V domains shown)
VH: B1 VH
VL: B1 VL
